Data published in US20230242676A1 (KISOJI BIOTECHNOLOGY, published 2023).

Experiments:
SEQ ID NO 101 = target: T1, SEQ ID NO 101 (Homo sapiens (Human), UniProt P0DOX5 343-449 = IgG part); assay: co-expression of Chain A and Chain B vectors, SDS-PAGE and Western blot; heterodimer formation
T1 construct: also called Mutated CH3 domain of KB100 Chain B (mutations D399N, K439E, E357Q, T350V)
T1 constant: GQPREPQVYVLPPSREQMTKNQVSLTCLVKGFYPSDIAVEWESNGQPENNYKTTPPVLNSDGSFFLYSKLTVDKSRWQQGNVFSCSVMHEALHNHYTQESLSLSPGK

SEQ ID NO 95 = target: T2, SEQ ID NO 95 (Homo sapiens (Human), UniProt P0DOX5 343-449 = IgG part); assay: as above
T2 construct: also called Mutated CH3 domain of KB118 Chain B (mutations D399N); K439E
T2 constant: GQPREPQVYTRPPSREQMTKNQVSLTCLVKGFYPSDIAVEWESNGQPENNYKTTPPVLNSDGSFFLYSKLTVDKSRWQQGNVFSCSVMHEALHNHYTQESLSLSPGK

Binder	binding result (SEQ ID NO 101)	binding result (SEQ ID NO 95)
SEQ ID NO 100 (other, also called Mutated CH3 domain of KB099 Chain A (mutations D399N, K370E, E356Q, T350V)) constant: GQPREPQVYVLPPSRQEMTKNQVSLTCLVEGFYPSDIAVEWESNGQPENNYKTTPPVLNSDGSFFLYSKLTVDKSRWQQGNVFSCSVMHEALHNHYTQKSLSLSPGK	binds	–
SEQ ID NO 102 (other, also called Mutated CH3 domain of KB105 Chain A (mutations D399N, K370E, E356Q, P352R)) constant: GQPREPQVYTLRPSRQEMTKNQVSLTCLVEGFYPSDIAVEWESNGQPENNYKTTPPVLNSDGSFFLYSKLTVDKSRWQQGNVFSCSVMHEALHNHYTQKSLSLSPGK	–	binds
SEQ ID NO 103 (other, also called Mutated CH3 domain of KB108 Chain A (mutations D399N, K370E, E356Q, P352E)) constant: GQPREPQVYTLEPSRQEMTKNQVSLTCLVEGFYPSDIAVEWESNGQPENNYKTTPPVLNSDGSFFLYSKLTVDKSRWQQGNVFSCSVMHEALHNHYTQKSLSLSPGK	–	binds
